In the experiment the target is lactate dehydrogenase (LDH) in lysates of NCI-H460 cells (human, UniProt P00338 2-332). In words: cell-based or functional assay.

Non-standard residues stand in square brackets, D forms with d. Phe(4-guanidino) = N=C(N)Nc1ccc(C[C@H](N)C(=O)O)cc1

B1: HILR-030 (cyclo-[Pro-Arg-Gly-Pro-Arg-Pro-Val-Trp-Trp-Gpa-Gpa-Trp-Trp-Gpa-Gpa-Trp-Trp]) (peptide)
peptide: cyclo(PRGPRPVWW[Phe(4-guanidino)][Phe(4-guanidino)]WW[Phe(4-guanidino)][Phe(4-guanidino)]WW)
SMILES: CC(C)[C@@H]1NC(=O)[C@@H]2CCCN2C(=O)[C@H](CCCNC(=N)N)NC(=O)[C@@H]2CCCN2C(=O)CNC(=O)[C@H](CCCNC(=N)N)NC(=O)[C@@H]2CCCN2C(=O)[C@H](Cc2c[nH]c3ccccc23)NC(=O)[C@H](Cc2c[nH]c3ccccc23)NC(=O)[C@H](Cc2ccc(NC(=N)N)cc2)NC(=O)[C@H](Cc2ccc(NC(=N)N)cc2)NC(=O)[C@H](Cc2c[nH]c3ccccc23)NC(=O)[C@H](Cc2c[nH]c3ccccc23)NC(=O)[C@H](Cc2ccc(NC(=N)N)cc2)NC(=O)[C@H](Cc2ccc(NC(=N)N)cc2)NC(=O)[C@H](Cc2c[nH]c3ccccc23)NC(=O)[C@H](Cc2c[nH]c3ccccc23)NC1=O
For B1, the “IC50 of LDH activity (LDH activity kit on lysates of treated NCI-H460 cells)” value was found to be 22 µM.

B2: HILR-025 (cyclo-[Pro-Arg-Gly-Pro-Arg-Pro-Val-Trp-Trp-Arg-Arg-Trp-Trp-Arg-Arg-Trp-Trp]) (peptide)
peptide: PRGPRPVWWRRWWRRWW
modifications: head-to-tail cyclic peptide
As for B2, the “IC50 of LDH activity (LDH activity kit on lysates of treated NCI-H460 cells)” value amounted to 16 µM.
